Measured values: PMC11347170, “Staphylococcal exoribonuclease YhaM destabilizes ribosomes by targeting the mRNA of a hibernation factor”
Where “and” joins values, the source holds several entries; their conditions need not be identical. Equal entries are not always repeated.

Tests used:
[1] = target: His6-YhaM^WT, recombinant wild-type S. aureus 3'-5' exoribonuclease YhaM (Staphylococcus aureus USA300 JE2); assay: SEC; 60 uM YhaM on HiPrep 16/60 Sephacryl S-100 HR, buffer B (40 mM HEPES pH 7.5, 0.5 M KCl, 10% glycerol); size by gel filtration standard
[2] = target: His6-YhaM^WT, recombinant wild-type S. aureus 3'-5' exoribonuclease YhaM (Staphylococcus aureus USA300 JE2); assay: mass photometry; TwoMP mass photometer, 30 nM protein, 50 mM Na-Tricine pH 8.0, 100 mM KCl without metal or with 1 mM MnSO4, MgSO4 or CoSO4
[3] = target: YhaM^WT expressed in the S. aureus ΔyhaM mutant from a plasmid under its native promoter (Staphylococcus aureus USA300 JE2); assay: cross-linking; in vivo, S. aureus ΔyhaM cells carrying pYhaM^WT (OD600 0.8), 1 mM glutaraldehyde for 1-2 h at room temperature, Western blot with anti-YhaM

Substance: His6-YhaM^WT, recombinant wild-type S. aureus 3'-5' exoribonuclease YhaM (enzyme)
- stoichiometry N [1]: 6
- percent of particles in a hexameric state with Mn(II) [2]: 80%
- stoichiometry N [2]: 2 and 6

Substance: YhaM^WT expressed in the S. aureus ΔyhaM mutant from a plasmid under its native promoter (enzyme)
- stoichiometry N [3]: 6 and 2 and 4
